Laboratory results reported in publication PMC2665219 (Nucleic Acids Research, 2009).

T1: EbfC (Borrelia burgdorferi, UniProt O51418 1-99)
T1 sequence: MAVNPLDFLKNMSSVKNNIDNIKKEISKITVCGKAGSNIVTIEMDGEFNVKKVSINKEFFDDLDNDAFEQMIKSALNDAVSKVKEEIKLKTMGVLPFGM

B1: b-C1/2+3 (dsDNA)
DNA 1: TTGTAATGAGTAGTGCATTTGCAATGGAGAGATTTTGGGGAGTTGTTTAAAATTACATTTGCGTTTTGTTACAACACAACAGCTGAACACAACAAAATTATATATTTAAATCTTTGAAATATTGC
DNA 2: GCAATATTTCAAAGATTTAAATATATAATTTTGTTGTGTTCAGCTGTTGTGTTGTAACAAAACGCAAATGTAATTTTAAACAACTCCCCAAAATCTCTCCATTGCAAATGCACTACTCATTACAA
B2: b-C2+3 (dsDNA)
DNA 1: TTGTAATGAGTAGTGCATTTGCAATGGAGAGATTTTGGGGAGTTGTTTAAAATTACATTTGCGTTTTGTTACAACACAACAGCTGAATGTAACAAAATTATATATTTAAATCTTTGAAATATTGC
DNA 2: GCAATATTTCAAAGATTTAAATATATAATTTTGTTACATTCAGCTGTTGTGTTGTAACAAAACGCAAATGTAATTTTAAACAACTCCCCAAAATCTCTCCATTGCAAATGCACTACTCATTACAA
B3: EbfC K16A mutant (natural protein, Borrelia burgdorferi strain B31, UniProt O51418 1-99, looked up)
chain: MAVNPLDFLKNMSSVANNIDNIKKEISKITVCGKAGSNIVTIEMDGEFNVKKVSINKEFFDDLDNDAFEQMIKSALNDAVSKVKEEIKLKTMGVLPFGM
B4: EbfC D20A mutant (natural protein, Borrelia burgdorferi strain B31, UniProt O51418 1-99, looked up)
chain: MAVNPLDFLKNMSSVKNNIANIKKEISKITVCGKAGSNIVTIEMDGEFNVKKVSINKEFFDDLDNDAFEQMIKSALNDAVSKVKEEIKLKTMGVLPFGM
B5: EbfC K82A mutant (natural protein, Borrelia burgdorferi strain B31, UniProt O51418 1-99, looked up)
chain: MAVNPLDFLKNMSSVKNNIDNIKKEISKITVCGKAGSNIVTIEMDGEFNVKKVSINKEFFDDLDNDAFEQMIKSALNDAVSAVKEEIKLKTMGVLPFGM
B6: EbfC K23A mutant (natural protein, Borrelia burgdorferi strain B31, UniProt O51418 1-99, looked up)
chain: MAVNPLDFLKNMSSVKNNIDNIAKEISKITVCGKAGSNIVTIEMDGEFNVKKVSINKEFFDDLDNDAFEQMIKSALNDAVSKVKEEIKLKTMGVLPFGM
B7: EbfC K84A mutant (natural protein, Borrelia burgdorferi strain B31, UniProt O51418 1-99, looked up)
chain: MAVNPLDFLKNMSSVKNNIDNIKKEISKITVCGKAGSNIVTIEMDGEFNVKKVSINKEFFDDLDNDAFEQMIKSALNDAVSKVAEEIKLKTMGVLPFGM
B8: EbfC D78A mutant (natural protein, Borrelia burgdorferi strain B31, UniProt O51418 1-99, looked up)
chain: MAVNPLDFLKNMSSVKNNIDNIKKEISKITVCGKAGSNIVTIEMDGEFNVKKVSINKEFFDDLDNDAFEQMIKSALNAAVSKVKEEIKLKTMGVLPFGM
B9: EbfC K88A mutant (natural protein, Borrelia burgdorferi strain B31, UniProt O51418 1-99, looked up)
chain: MAVNPLDFLKNMSSVKNNIDNIKKEISKITVCGKAGSNIVTIEMDGEFNVKKVSINKEFFDDLDNDAFEQMIKSALNDAVSKVKEEIALKTMGVLPFGM
B10: EbfC E85A mutant (natural protein, Borrelia burgdorferi strain B31, UniProt O51418 1-99, looked up)
chain: MAVNPLDFLKNMSSVKNNIDNIKKEISKITVCGKAGSNIVTIEMDGEFNVKKVSINKEFFDDLDNDAFEQMIKSALNDAVSKVKAEIKLKTMGVLPFGM
B11: b-C50 (dsDNA)
DNA 1: TTGTAATGAGTAGTGCATTTGCAATGGAGAGATTTTGGGGAGTTGTTTAAAATTACATTTGCGTTTTGTTAAAACACAACAGCTGAATGTATCAAAATTATATATTTAAATCTTTGAAATATTGC
DNA 2: GCAATATTTCAAAGATTTAAATATATAATTTTGATACATTCAGCTGTTGTGTTTTAACAAAACGCAAATGTAATTTTAAACAACTCCCCAAAATCTCTCCATTGCAAATGCACTACTCATTACAA
B12: b-C20 (dsDNA)
DNA 1: TTGTAATGAGTAGTGCATTTGCAATGGAGAGATTTTGGGGAGTTGTTTAAAATTACATTTGCGTTTTGTTAAAACACAACAGCTGAATGTAAAAAAATTATATATTTAAATCTTTGAAATATTGC
DNA 2: GCAATATTTCAAAGATTTAAATATATAATTTTTTTACATTCAGCTGTTGTGTTTTAACAAAACGCAAATGTAATTTTAAACAACTCCCCAAAATCTCTCCATTGCAAATGCACTACTCATTACAA
B13: b-C30 (dsDNA)
DNA 1: TTGTAATGAGTAGTGCATTTGCAATGGAGAGATTTTGGGGAGTTGTTTAAAATTACATTTGCGTTTTGTTAAAACACAACAGCTGAATGTAACTAAATTATATATTTAAATCTTTGAAATATTGC
DNA 2: GCAATATTTCAAAGATTTAAATATATAATTTAGTTACATTCAGCTGTTGTGTTTTAACAAAACGCAAATGTAATTTTAAACAACTCCCCAAAATCTCTCCATTGCAAATGCACTACTCATTACAA
B14: b-C40 (dsDNA)
DNA 1: TTGTAATGAGTAGTGCATTTGCAATGGAGAGATTTTGGGGAGTTGTTTAAAATTACATTTGCGTTTTGTTAAAACACAACAGCTGAATGTGACAAAATTATATATTTAAATCTTTGAAATATTGC
DNA 2: GCAATATTTCAAAGATTTAAATATATAATTTTGTCACATTCAGCTGTTGTGTTTTAACAAAACGCAAATGTAATTTTAAACAACTCCCCAAAATCTCTCCATTGCAAATGCACTACTCATTACAA

target: T1, EbfC; assay: EMSA

Binder | binding result
B1 | binds
B2 | binds

Target: the molecule itself
Assay: SEC

Binder | stoichiometry N
B3 | 2
B4 | 2
B5 | 2
B6 | 2
B7 | 2
B8 | 2
B9 | 2
B10 | 2

target: T1, EbfC; assay: EMSA; remark: another data set of the same source

Binder | binding result
B11 | no binding
B12 | no binding

target: T1, EbfC; assay: EMSA; remark: another data set of the same source

Binder | binding result
B13 | binds
B14 | binds
